Source: article PMC1934351
pKd: −log10 of the molar value.

What was measured:
[1] = test system: L1 repressor CI (native, untagged) (Mycobacteriophage L1); assay: equilibrium binding; details: data not shown; EMSA in Buffer A (binding buffer composition not given in material) with 10 ug/ml BSA, ~0.1 nM 32P-labeled operator, 20 ul, 25 C for 20 min (also 32, 37, 42 C …)
[2] = molecular target: C-terminal domain (CTD) of L1 repressor CI (mycobacteriophage L1); assay: cross-linking; 0.1% glutaraldehyde for 2 min after 20 min at 25°C in Buffer A, ~0.5 uM protein, SDS-10% PAGE, silver staining; monomer to dimer
[3] = molecular target: C-terminal domain (CTD) of L1 repressor CI (mycobacteriophage L1); assay: SEC; analytical HPLC gel filtration (Protein Pak, Waters) in Buffer A minus PMSF; ~20 uM protein loaded; column calibrated with BSA, ovalbumin, carbonic anhydrase, lysozyme; monomer to dimer
[4] = molecular target: N-terminal histidine-tagged repressor (CI) of temperate mycobacteriophage L1 (mycobacteriophage L1); assay: cross-linking; 0.1% glutaraldehyde for 2 min after 20 min at 25°C in Buffer A, ~0.5 uM protein, SDS-10% PAGE, silver staining; monomer to dimer
[5] = molecular target: N-terminal histidine-tagged repressor (CI) of temperate mycobacteriophage L1 (mycobacteriophage L1); assay: SEC; analytical HPLC gel filtration (Protein Pak, Waters) in Buffer A minus PMSF; ~20 uM protein loaded; column calibrated with BSA, ovalbumin, carbonic anhydrase, lysozyme; monomer to dimer
[6] = test system: L1 repressor CI (native, untagged) (Mycobacteriophage L1); assay: EMSA; details: EMSA in Buffer A (binding buffer composition not given in material) with 10 ug/ml BSA, ~0.1 nM 32P-labeled operator, 20 ul, 25 C for 20 min (also 32, 37, 42 C …); for pKd: 25 C, apparent Kd at 50% saturation

N-terminal histidine-tagged repressor (CI) of temperate mycobacteriophage L1, sequence (Q05286 whole entry): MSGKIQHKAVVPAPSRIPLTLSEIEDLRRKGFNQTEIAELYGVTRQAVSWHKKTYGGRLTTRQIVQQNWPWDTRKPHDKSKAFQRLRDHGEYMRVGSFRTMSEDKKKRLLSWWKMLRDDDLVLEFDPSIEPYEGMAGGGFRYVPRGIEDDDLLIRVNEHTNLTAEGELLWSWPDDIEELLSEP

21 bp DNA carrying O64 operator
binding signal (fold higher affinity than N4) [1]: 2.57

21 bp DNA carrying OL operator
binding signal (affinity relative to N3 (1/2.57)) [1]: 0.389

C-terminal domain (CTD) of L1 repressor CI (domain or fragment)
stoichiometry N [2]: 2 | stoichiometry N [3]: 2

N-terminal histidine-tagged repressor (CI) of temperate mycobacteriophage L1
stoichiometry N [4]: 2 | stoichiometry N [5]: 2

O64 (~120 bp)
pKd [6]: 6.85 | binding signal (fold decrease of affinity vs 25 C) [6]: 6

OL (97 bp)
pKd [6]: 6.43
